± gives the standard deviation of the averaged measurements.

From the supplement of paper PMC10126150 come the findings set out here.
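Note: ATP exposure 15 min at 22 °C before imaging.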

For the data set, the system named is ATP. In words: switch fluorescence ratio, 500 uM ATP over buffer (Cy3 cluster intensity, sum of 5 cycles each) (fold (ratio)); higher = stronger signal-on switching upon ATP binding; sequences stand for … in TCGTCGGCAGCGTCAGATGTGTATAAGAGACAGTTTTTTTTTTTTTTTTTTTTTTTTT…TC. As to conditions: aptamer strand: ATP DNA aptamer (quencher-CACCTGGGGGAGTATTGCGGAGGAAGG + anchor), 100 nM annealed; ATP concentration: 500 uM. A digest of the protocol:
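Between each of five buffer/ATP cycles, the flow-cell was stripped with NaOH and re-annealed. Each cycle imaged Cy3-labelled switching-strand clusters, annealed to 100 nM quencher-labelled ATP aptamer on a modified Illumina MiSeq flow-cell, first in selection buffer and then after 15 min with 500 uM ATP at 22 °C. The fluorescence ratio is summed target-cycle over summed buffer-cycle Cy3 intensity per cluster, averaged per switch-domain sequence, with clusters outside 100-1000 RFU excluded.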
Turning to ATGCGAGTAT, the switch fluorescence ratio worked out at 1.023 ± 0.0018.
The result for GAACTGGTAG reads 0.992 ± 0.035.
With TGGGTTCACT, the switch fluorescence ratio came to 1.02 ± 0.017.
Regarding AACGCCGCAT, the switch fluorescence ratio is 1.858 ± 0.0036.
The value for GCTAGAAATG was 0.978 ± 0.043; that for GGGGGCCGGA was 1.01 ± 0.048; that for CACTAATGAG was 1.0254 ± 0.00028.
The value for ATTAATAGG was 0.997 ± 0.026; that for GCGTCCGGGA was 1.21 ± 0.092; that for GCCTGTTGCA was 0.9709 ± 0.0037.
The result for TTCTAGTTAC reads 1.047 ± 0.0056; that for TTGGATGCCT, 1.01 ± 0.047.
As for CAATCTACGC, the switch fluorescence ratio was 1.11 ± 0.038.
As to CGTTAGTTTT, the switch fluorescence ratio is 0.9924 ± 0.0021.
The result for TTTATTAGTT reads 0.998 ± 0.025; that for GGGTGGCCTG, 1.03 ± 0.077.
The value for TTTTCTATGT was 1 ± 0.019; that for TTTTTCCGCT was 1.86 ± 1; that for TAATATAGTG was 1.02 ± 0.045.
The result for TTCTGGCACG reads 1.12 ± 0.18.
Consider AAGGTTATTA, for which the switch fluorescence ratio is 1 ± 0.023.
The result for AAAAAATTGT reads 0.999 ± 0.019.
CCAGTACTGA: the switch fluorescence ratio turned out to be 1.021 ± 0.0094.
The result for AAAGGTTGTT reads 1.013 ± 0.0037; that for CTTCGCACGG, 3.54 ± 0.37; that for AATTACTGG, 1 ± 0.031.
The result for TTGAATGTTT reads 0.992 ± 0.059; that for GGATGGTTCG, 0.972 ± 0.023.
The value for CGCGCGGATT was 1.04 ± 0.034; that for AATAAGCTGG was 0.984 ± 0.033; that for AAGATTATTT was 0.989 ± 0.074.
Consider TTGAAACCGG, for which the switch fluorescence ratio was found to be 0.998 ± 0.017.
As to TGGTTAAATT, the switch fluorescence ratio worked out at 0.997 ± 0.033.
Regarding CGAGTAGTGC, the switch fluorescence ratio came out at 1.12 ± 0.033.
The result for CCAGCAGGGA reads 1.37 ± 0.49; that for TTTTGTATTA, 0.99 ± 0.029; that for GGGAATAACT, 0.998 ± 0.037.
On to TTGGGGAAAC, for which the switch fluorescence ratio was determined as 0.99 ± 0.029.
The value for ATTTTCATAT was 0.98 ± 0.021.
The result for AGGGTTCGAC reads 1.01 ± 0.039.
The value for TCGTGTACGG was 1.04 ± 0.016; that for GCATTATTGG was 0.998 ± 0.016; that for ATAAATGCGG was 1.02 ± 0.041.
As to GATTGATGTT, the switch fluorescence ratio was 1.013 ± 0.009.
As to CACAAACAGA, the switch fluorescence ratio came out at 1.12 ± 0.036.
The result for TTTGTTCCTC reads 1.103 ± 0.005; that for TTTCTGAGTT, 1.01 ± 0.032.
The value for TAGGGGGGAC was 1.19 ± 0.34.
The result for AGGAGGGAG reads 1.003 ± 0.0093; that for AGGAGGCGTT, 0.992 ± 0.029; that for CTGTGTGAAG, 1 ± 0.038.
AGGAAAAGGG: the switch fluorescence ratio was determined as 1.14 ± 0.1.
For the sequence GTTTCTGGAG, the switch fluorescence ratio turned out to be 1.03 ± 0.013.
The value for GCATGCTTAA was 0.9876 ± 0.006.
As to TATAGATGTG, the switch fluorescence ratio turned out to be 1.013 ± 0.0024.
The value for AAATAAGTC was 0.945 ± 0.024; that for TGAAGTTTTT was 1.02 ± 0.064; that for GGGGAAGGTA was 0.978 ± 0.019.
Regarding CAAATGGTTA, the switch fluorescence ratio amounted to 0.974 ± 0.01.
With TCGGGGCTCC, the switch fluorescence ratio worked out at 2.87 ± 2.6.
Regarding TAGTGGGTTT, the switch fluorescence ratio was found to be 1.01 ± 0.021.
The result for CCTAAAGGCT reads 1.0151 ± 4.7e-05; that for ATAATTTCGG, 1.01 ± 0.026.
The result for ACGCGGACGG reads 1.05 ± 0.016.
For the sequence GGTGATAATG, the switch fluorescence ratio amounted to 0.982 ± 0.031.
The value for ATATAGGTGG was 0.999 ± 0.026; that for TGTGTTGGTC was 1.036 ± 0.0032.
